# Assay results as given in paper PMC12241633, “Irinotecan alleviates chemoresistance to anthracyclines through the inhibition of AARS1-mediated BLM lactylation and homologous recombination repair” (Signal Transduction and Targeted Therapy, 2025).
# B1: purified human BLM-K24R protein (natural protein)
# chain: not shown
# notes: BLM, human, K24R; also called K24R BLM; BLM-K24R mutant; source: E. coli BL21 (DE3), pET28a-sumo, purified (AKTA pure chromatography)
# B2: purified human BLM-WT protein (natural protein)
# chain: not shown
# notes: BLM, human; also called WT BLM; source: E. coli BL21 (DE3), pET28a-sumo, purified (AKTA pure chromatography)
# Biological target: T1, purified human MIB1 protein (human, UniProt Q86YT6 1-1006)
# T1 construct: MIB1, human; source: E. coli BL21 (DE3), pET28a-sumo, purified (AKTA pure chromatography)
# T1 sequence (Q86YT6 whole entry): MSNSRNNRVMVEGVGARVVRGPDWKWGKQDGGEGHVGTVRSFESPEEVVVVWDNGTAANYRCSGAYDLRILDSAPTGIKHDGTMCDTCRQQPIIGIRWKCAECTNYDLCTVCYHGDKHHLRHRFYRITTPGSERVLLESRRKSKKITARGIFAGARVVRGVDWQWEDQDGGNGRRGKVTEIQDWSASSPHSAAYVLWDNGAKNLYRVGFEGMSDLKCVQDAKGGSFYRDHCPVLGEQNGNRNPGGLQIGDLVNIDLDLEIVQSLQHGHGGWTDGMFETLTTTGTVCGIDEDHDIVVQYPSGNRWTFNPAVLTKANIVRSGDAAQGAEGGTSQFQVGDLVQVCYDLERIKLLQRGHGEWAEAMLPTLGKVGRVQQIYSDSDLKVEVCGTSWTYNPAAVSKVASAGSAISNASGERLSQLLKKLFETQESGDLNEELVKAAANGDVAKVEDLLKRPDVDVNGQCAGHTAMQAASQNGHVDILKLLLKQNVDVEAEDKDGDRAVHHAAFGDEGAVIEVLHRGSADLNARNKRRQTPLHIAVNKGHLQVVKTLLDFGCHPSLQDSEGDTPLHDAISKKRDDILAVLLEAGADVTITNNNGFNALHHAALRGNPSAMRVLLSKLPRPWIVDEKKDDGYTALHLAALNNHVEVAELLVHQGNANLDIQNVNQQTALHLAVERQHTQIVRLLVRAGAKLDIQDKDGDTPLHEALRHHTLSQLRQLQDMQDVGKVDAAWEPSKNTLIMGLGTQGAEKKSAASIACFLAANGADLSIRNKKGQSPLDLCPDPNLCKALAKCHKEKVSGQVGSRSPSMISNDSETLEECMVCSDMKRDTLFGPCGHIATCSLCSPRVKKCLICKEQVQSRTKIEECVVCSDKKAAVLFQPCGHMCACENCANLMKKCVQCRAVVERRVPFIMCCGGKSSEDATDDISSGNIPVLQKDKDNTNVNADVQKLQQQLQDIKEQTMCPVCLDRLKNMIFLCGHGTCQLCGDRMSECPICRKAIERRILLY
# Test: SPR; Biacore T200, CM5 chip, amine coupling in 10 mM sodium acetate pH 4.0 to 5000 RU, 25 °C, running buffer PBS, 0.05% Tween-20, 1% DMSO; multicycle kinetics, 1:1 Langmuir fit; which of the two proteins was immobilised is not stated
# Conditions: both partners purified
row,Binder,Kd [nM]
1,B1,26.8
2,B2,121
